Test results from the Human Domainome abundance scans (Beltran et al. 2025).
± gives the uncertainty stated by the source.

B1: Ubiquitin-protein ligase residues 30 to 86; numbered along this chain, Q05086 (parent)
chain: KHLIERYYHQLTEGCGNEACTNEFCASCPTFLRMDNNAAAIKALELYKINAKLCDPH
B2: Zinc finger homeobox protein 4, residues 2086 to 2141; numbered along this chain, Q86UP3 (parent)
chain: RPRTRITDDQLKILRAYFDINNSPSEEQIQEMAEKSGLSQKVIKHWFRNTLFKERQ

Variants of: B1
Assay: abundance fitness (aPCA) (normalised: wild type 0, dead -1); higher = more abundant; growth selection in yeast, the domain comes from the species named
Conditions: Homo sapiens

Abundance fitness: each site, then its substitutions
P56: W -0.038 ± 0.096; F 0.098 ± 0.17; K -0.055 ± 0.13; T 0.016 ± 0.11; D -0.035 ± 0.11; Y -0.049 ± 0.19; C -0.041 ± 0.11; L 0.044 ± 0.065; Q -0.068 ± 0.12; G 0.024 ± 0.069; R 0.023 ± 0.065; S -0.081 ± 0.082; H -0.22 ± 0.11
H57: T 0.109 ± 0.16; V 0.173 ± 0.19; F 0.076 ± 0.26; N 0.104 ± 0.16; C 0.175 ± 0.2; I -0.408 ± 0.43; R -0.052 ± 0.11; A -0.022 ± 0.15; G 0.013 ± 0.16; E -0.505 ± 0.35; Y 0.017 ± 0.074; S -0.268 ± 0.14; W -0.348 ± 0.23; Q 0.009 ± 0.22; D -0.051 ± 0.13; K -0.092 ± 0.43; P -0.006 ± 0.1

Variants of: B2
Assay: as above
Conditions: Homo sapiens

Abundance fitness of substitutions, site by site:
I13: P -0.612 ± 0.14; G -0.347 ± 0.076; W -0.136 ± 0.082; L -0.08 ± 0.072; M -0.057 ± 0.084; S -0.218 ± 0.088; Q 0.026 ± 0.11; F -0.13 ± 0.19; R -0.223 ± 0.074; T 0.043 ± 0.11; D -0.289 ± 0.15; H -0.333 ± 0.14; V -0.027 ± 0.076; Y -0.027 ± 0.21; E -0.17 ± 0.12; K -0.062 ± 0.12; A -0.372 ± 0.084
P2: R -0.083 ± 0.08; M 0.143 ± 0.14; H 0.187 ± 0.14; C -0.844 ± 0.12; D 0.033 ± 0.11; V 0.067 ± 0.081; G 0.048 ± 0.077; I -0.067 ± 0.11; L -0.047 ± 0.088; W -1.01 ± 0.15; Y 0.022 ± 0.16; A -0.134 ± 0.097; K 0.197 ± 0.15; N 0.18 ± 0.16; S 0.057 ± 0.078; T 0.049 ± 0.1; Q 0.173 ± 0.13; F 0.157 ± 0.13
R1: H -0.211 ± 0.25; P -0.512 ± 0.22; N 0.247 ± 0.12; L -0.101 ± 0.2; Y -0.157 ± 0.19; A -0.327 ± 0.37; V -0.21 ± 0.23; I -0.116 ± 0.12; C -0.033 ± 0.14; T -0.131 ± 0.12; K -0.891 ± 0.33; W -1.13 ± 0.23; M -0.634 ± 0.22; F -0.327 ± 0.27; D 0.188 ± 0.24; S -0.284 ± 0.096
T7: M 0.038 ± 0.12; I -0.288 ± 0.081; Y -0.491 ± 0.093; S -0.125 ± 0.083; R -0.054 ± 0.12; K -0.344 ± 0.23; L -0.271 ± 0.079; V -0.217 ± 0.1; H -0.344 ± 0.096; D 0.174 ± 0.14; A 0.02 ± 0.12; Q -0.42 ± 0.17; P -0.241 ± 0.1; C -0.337 ± 0.14; F -0.352 ± 0.1; W -0.774 ± 0.38; E 0.082 ± 0.19; N -0.038 ± 0.092
R15: Y -0.2 ± 0.11; C -0.414 ± 0.13; T -0.065 ± 0.088; W -0.133 ± 0.081; I -0.296 ± 0.16; G -0.093 ± 0.07; K 0.018 ± 0.093; E -0.098 ± 0.089; P -0.939 ± 0.12; Q 0.022 ± 0.093; D -0.168 ± 0.11; L -0.081 ± 0.072; N -0.07 ± 0.15; M 0.138 ± 0.093; A -0.215 ± 0.076; H -0.337 ± 0.15; F -0.245 ± 0.16; S -0.012 ± 0.082; V -0.151 ± 0.073
R3: C -0.343 ± 0.097; Y 0.026 ± 0.12; W -0.569 ± 0.09; P -0.096 ± 0.12; N -0.033 ± 0.12; D 0.015 ± 0.1; V -0.037 ± 0.068; T 0.102 ± 0.091; E 0.054 ± 0.12; L -0.024 ± 0.083; S 0.071 ± 0.079; G 0.099 ± 0.064; Q 0.201 ± 0.13; H 0.042 ± 0.13; M 0.216 ± 0.11; K -0.011 ± 0.16; F -0.15 ± 0.095; I -0.136 ± 0.1
L11: A -0.193 ± 0.069; G -0.172 ± 0.065; M -0.148 ± 0.11; C -0.392 ± 0.096; P -0.769 ± 0.11; D -0.069 ± 0.13; E 0.059 ± 0.097; N -0.024 ± 0.17; Q -0.147 ± 0.1; W -0.205 ± 0.077; H -0.165 ± 0.11; K 0.138 ± 0.11; S -0.043 ± 0.073; T -0.115 ± 0.087; I -0.14 ± 0.13; R -0.026 ± 0.069; F -0.134 ± 0.086; Y 0.155 ± 0.13; V -0.18 ± 0.074
D9: S 0.084 ± 0.065; G -0.14 ± 0.078; P -0.002 ± 0.07; C -0.011 ± 0.094; Q -0.083 ± 0.12; N 0.047 ± 0.069; V -0.162 ± 0.073; Y -0.041 ± 0.069; T 0.165 ± 0.07; F 0.071 ± 0.076; H 0.044 ± 0.074; E -0.003 ± 0.11; R -0.134 ± 0.078; A 0.059 ± 0.074; M -0.084 ± 0.091; I -0.026 ± 0.075; L -0.043 ± 0.064; K -0.087 ± 0.09; W -0.155 ± 0.11
A16: G 0.035 ± 0.13; S 0.129 ± 0.068; N 0.16 ± 0.093; Y -0.013 ± 0.095; K -0.129 ± 0.18; I -0.071 ± 0.11; V -0.211 ± 0.089; D -0.029 ± 0.11; E 0.178 ± 0.14; M 0.124 ± 0.12; P -0.028 ± 0.082; Q 0.03 ± 0.11; R 0.096 ± 0.076; T -0.124 ± 0.083; C -0.075 ± 0.077; L -0.051 ± 0.071; H 0.108 ± 0.083
L14: V -0.273 ± 0.083; C -0.671 ± 0.17; Y -1.22 ± 0.33; F -0.304 ± 0.28; D -1.19 ± 0.46; I -0.439 ± 0.42; S -1.02 ± 0.14; R -0.949 ± 0.096; T -1.01 ± 0.12; N -1.18 ± 0.31; Q -0.866 ± 0.13; A -0.865 ± 0.12; E -1 ± 0.14; K -1.16 ± 0.2; H -1 ± 0.23; W -0.777 ± 0.14
I6: F 0.002 ± 0.07; A -0.069 ± 0.086; M 0.369 ± 0.094; G -0.381 ± 0.09; S -0.245 ± 0.07; R -0.596 ± 0.077; Q -0.389 ± 0.11; V -0.04 ± 0.077; Y -0.047 ± 0.08; K -0.433 ± 0.13; D -0.148 ± 0.13; C -0.318 ± 0.084; P -0.103 ± 0.076; H -0.271 ± 0.071; N -0.377 ± 0.084; W -0.553 ± 0.11; L 0.006 ± 0.062; T -0.246 ± 0.074; E -0.18 ± 0.2
Y17: F 0.025 ± 0.088; P -0.963 ± 0.12; H -0.045 ± 0.08; Q -0.089 ± 0.1; N 0.041 ± 0.088; V -0.204 ± 0.079; A -0.16 ± 0.091; L -0.159 ± 0.065; C -0.192 ± 0.08; D -0.16 ± 0.11; I -0.155 ± 0.085; S -0.227 ± 0.072; R -0.114 ± 0.078; M 0.076 ± 0.1; G -0.075 ± 0.088; T -0.058 ± 0.088; W -0.299 ± 0.097
F18: I -0.313 ± 0.1; C -0.179 ± 0.091; G -0.184 ± 0.065; D -0.227 ± 0.098; A -0.026 ± 0.073; M -0.043 ± 0.1; K -0.044 ± 0.15; E -0.305 ± 0.094
Q10: D -0.125 ± 0.12; E -0.383 ± 0.092; M -0.323 ± 0.11; Y -0.498 ± 0.13; T -0.245 ± 0.092; G -0.514 ± 0.068; I -0.462 ± 0.12; W -0.817 ± 0.1; A -0.461 ± 0.076; F -0.616 ± 0.19; R -0.526 ± 0.078; N -0.099 ± 0.19; C -0.277 ± 0.11; S -0.172 ± 0.076; P -0.819 ± 0.13
K12: P -0.16 ± 0.093; S -0.09 ± 0.081; M -0.071 ± 0.091; Q -0.029 ± 0.11; L 0.005 ± 0.073; R -0.039 ± 0.065; I -0.094 ± 0.15; E -0.076 ± 0.1; C -0.112 ± 0.099; G -0.146 ± 0.068; A -0.137 ± 0.084; N -0.007 ± 0.11; D -0.212 ± 0.12; W -0.379 ± 0.082; Y -0.422 ± 0.13; V -0.045 ± 0.075; H -0.34 ± 0.13
D8: V -0.015 ± 0.069; Q 0.081 ± 0.097; M 0.113 ± 0.088; R -0.183 ± 0.067; E 0.145 ± 0.083; H -0.019 ± 0.16; C 0.046 ± 0.11; A -0.051 ± 0.066; G -0.004 ± 0.067; T -0.172 ± 0.1; P 0.034 ± 0.11; N -0.28 ± 0.11; K 0.012 ± 0.098; I 0.036 ± 0.14; F -0.056 ± 0.14; W -0.092 ± 0.081; Y -0.238 ± 0.14; L -0.127 ± 0.079; S 0.023 ± 0.081
T4: S -0.198 ± 0.077; W -1.16 ± 0.16; R -0.413 ± 0.076; E -0.096 ± 0.11; F 0.036 ± 0.12; V -0.116 ± 0.078; N 0.123 ± 0.13; K -0.329 ± 0.15; L -0.011 ± 0.081; C -0.965 ± 0.24; I -0.048 ± 0.11; H 0.01 ± 0.17; P -0.139 ± 0.12; Q -0.284 ± 0.13; A -0.271 ± 0.084; M 0.224 ± 0.11
R5: V 0.022 ± 0.067; C 0.136 ± 0.08; T 0.182 ± 0.068; E 0.163 ± 0.11; Q 0.183 ± 0.084; P 0.172 ± 0.072; N 0.184 ± 0.076; D 0.198 ± 0.081; L 0.207 ± 0.066; F 0.058 ± 0.075; I 0.067 ± 0.072; G -0.037 ± 0.069; M 0.16 ± 0.094; K 0.191 ± 0.1; W -0.184 ± 0.1; Y 0.082 ± 0.073
